# Laboratory results as given in publication PMC6050298, “Highly active enzymes by automated combinatorial backbone assembly and sequence design” (Nature Communications, 2018).
# Columns and labels:
# [1] = substrate: O=[N+]([O-])c1ccc(O[C@@H]2OC[C@@H](O[C@@H]3OC[C@@H](O)[C@H](O)[C@H]3O)[C@H](O)[C@H]2O)cc1; test: purified protein; assay type: biochemical, Geobacillus stearothermophilus; settings: 37 °C, 50 mM Tris pH 6.5, 150 mM NaCl, MBP fusion
# [2] = substrate: O=[N+]([O-])c1ccc(O[C@@H]2OC[C@@H](O[C@@H]3OC[C@@H](O)[C@H](O)[C@H]3O)[C@H](O)[C@H]2O)cc1; test: purified protein; assay type: biochemical, synthetic construct; settings: 37 °C, 50 mM Tris pH 6.5, 150 mM NaCl, MBP fusion
Protein,Km [1] [µM],kcat [1] [s⁻¹],Km [2] [µM],kcat [2] [s⁻¹]
"Xylanase from Geobacillus stearothermophilus (PDB ID: 4PUD) (Geobacillus stearothermophilus) (protein, synthetic codon-optimised gene, N-terminal His6-MBP fusion kept in assay, E. coli BL21 DE3; monomer; 4PUD names the template structure) KPHISALNAPQLDQRYKNEFTIGAAVEPYQLQNEKDVQMLKRHFNSIVAENVMKPISIQPEEGKFNFEQADRIVKFAKANGMDIRFHTLVWHSQVPQWFFLDKEGKPMVNETDPVKREQNKQLLLKRLETHIKTIVERYKDDIKYWDVVNEVVGDDGKLRNSPWYQIAGIDYIKVAFQAARKYGGDNIKLYMNDYNTEVEPKRTALYNLVKQLKEEGVPIDGIGHQSHIQIGWPSEAEIEKTINMFAALGLDNQITELDVSMYGWPPRAYPTYDAIPKQKFLDQAARYDRLFKLYEKLSDKISNVTFWGIADNHTWLDSRADVYYDANGNVVVDPNAPYAKVEKGKGKDAPFVFGPDYKVKPAYWAIIDHK",160 ± 20,6.47 ± 0.04,–,–
"xyl3.1 (synthetic construct) (protein, computational design (105 mutations to nearest natural protein), N-terminal His6-MBP fusion kept in assay) TIGSEFKPHISALNAPSLAQRYKDYFYIGAAVEPYQTTKEKDAKMLQRHFNMIVAENAMKPAALEPTEGNFQWADADRIVQFAKENGMELRFHTLVWHNQTPDWFFLDREGKPMVEETDPQKREENRELLLQRLENHIRAVVLRYKDDIKNWDVVNEVVEPNDPGGMRNSPWYQITGTEYIEVAFRAAREAGGEDIKLYMNDYNTEQEPKREYIYRLIKKLLEKGVPIDGVGHQAHVTIDRPPVDEIKKTIQRFADLGLDNQITELDVSLYGWPPRPAYPTYDAIPEERFQAQADRYRQLFELFEELKDHISAVTFWGIADNHTWLDDRAREYNDGVGKDAPFVFDPNYRVKPAYWAIINHK",–,–,1820 ± 600,17 ± 5
